# Patent US20210340217A1, “NOVEL PEPTIDES AND COMBINATION OF PEPTIDES FOR USE IN IMMUNOTHERAPY AGAINST OVARIAN CANCER AND OTHER CANCERS” (Immatics Biotechnologies GmbH, priority 2017, published 2021)
# Target: HLA-B*07:02 (Homo sapiens, UniProt P01889)
# Assay: MHC binding assay (UV-ligand exchange, beta2m ELISA)
# Conditions: peptide exchange yield
# Description: Candidate peptides for T cell based therapies according to the present invention were further tested for their MHC binding capacity (affinity). The individual peptide-MHC complexes were produced by UV-ligand exchange, where a UV-sensitive peptide is cleaved upon UV-irradiation, and exchanged with the peptide of interest as analyzed. Only peptide candidates that can effectively bind and stabilize the peptide-receptive MHC molecules prevent dissociation of the MHC complexes. To determine the yield of the exchange reaction, an ELISA was performed based on the detection of the light chain (β2m) of stabilized MHC complexes. The assay was performed as generally described in Rodenko et al. (Rodenko et al., 2006).
# 96 well MAXISorp plates (NUNC) were coated over night with 2 ug/ml streptavidin in PBS at room temperature, washed 4× and blocked for 1 h at 37° C. in 2% BSA containing blocking buffer. Refolded HLA-A*02:01/MLA-001 monomers served as standards, covering the range of 15-500 ng/ml. Peptide-MHC monomers of the UV-exchange reaction were diluted 100-fold in blocking buffer. Samples were incubated for 1 h at 37° C., washed four times, incubated with 2 ug/ml HRP conjugated anti-β2m for 1h at 37° C., washed again and detected with TMB solution that is stopped with […]. Absorption was measured at 450 nm. Candidate peptides that show a high exchange yield (preferably higher than 50%, most preferred higher than 75%) are generally preferred for a generation and production of antibodies or fragments thereof, and/or T cell receptors or fragments thereof, as they show sufficient avidity to the MHC molecules and prevent dissociation of the MHC complexes.
row,Substance,Peptide exchange
1,370 (PGGTRQSL; listed as Homo sapiens) [compound 370],“+” (>10% = +)
2,123 (KPSESIYSAL; listed as Homo sapiens) [compound 123],“+++” (>50 = +++)
3,302 (RVEEVRALL; listed as Homo sapiens) [compound 302],“+++” (>50 = +++)
4,296 (YPLRGSSI; listed as Homo sapiens) [compound 296],“++” (>20% = ++)
5,127 (APRAGSQVV; listed as Homo sapiens) [compound 127],“+++” (>50 = +++)
6,326 (VPSEIDAAF; listed as Homo sapiens) [compound 326],“++” (>20% = ++)
7,361 (SPTHVTQSL; listed as Homo sapiens) [compound 361],“+++” (>50 = +++)
8,316 (EPKTATVL; listed as Homo sapiens) [compound 316],“++” (>20% = ++)
9,301 (SPRRSPRISF; listed as Homo sapiens) [compound 301],“++” (>20% = ++)
10,299 (HPGSSALHY; listed as Homo sapiens) [compound 299],“++” (>20% = ++)
11,303 (LPMWKVTAF; listed as Homo sapiens) [compound 303],“+++” (>50 = +++)
12,300 (IPMAAVKQAL; listed as Homo sapiens) [compound 300],“+++” (>50 = +++)
13,143 (SPAMTSTSF; listed as Homo sapiens) [compound 143],“++” (>20% = ++)
14,353 (SPAMTTPSL; listed as Homo sapiens) [compound 353],“+++” (>50 = +++)
15,33 (SPTFHLTL; listed as Homo sapiens) [compound 33],“+++” (>50 = +++)
16,124 (LPSDSHFKITF; listed as Homo sapiens) [compound 124],“+++” (>50 = +++)
17,349 (MPSLSEAMTSF; listed as Homo sapiens) [compound 349],“+++” (>50 = +++)

row,Substance,Peptide exchange
1,294 (YPLRGSSIF; listed as Homo sapiens) [compound 294],“+++” (>50 = +++)
2,327 (SPLPVTSLI; listed as Homo sapiens) [compound 327],“+++” (>50 = +++)
3,355 (SPLVTSHIM; listed as Homo sapiens) [compound 355],“+++” (>50 = +++)
4,335 (HPDPVGPGL; listed as Homo sapiens) [compound 335],“++” (>20% = ++)
5,126 (KPGPEDKL; listed as Homo sapiens) [compound 126],“++” (>20% = ++)
6,343 (LPSVSGVKTTF; listed as Homo sapiens) [compound 343],“++” (>20% = ++)
7,359 (SPSTIKLTM; listed as Homo sapiens) [compound 359],“+++” (>50 = +++)
8,357 (SPSPVPTTL; listed as Homo sapiens) [compound 357],“+++” (>50 = +++)
9,362 (SPVPVTSLF; listed as Homo sapiens) [compound 362],“+++” (>50 = +++)
10,371 (LYVDGFTHW; listed as Homo sapiens) [compound 371],“++” (>20% = ++)
11,340 (LPEISTRTM; listed as Homo sapiens) [compound 340],“++” (>20% = ++)
12,329 (FPAMTESGGMIL; listed as Homo sapiens) [compound 329],“+++” (>50 = +++)
13,32 (SPNKGTLSV; listed as Homo sapiens) [compound 32],“+++” (>50 = +++)
14,141 (SPMTSLLTSGL; listed as Homo sapiens) [compound 141],“+++” (>50 = +++)
15,342 (LPLGTSMTF; listed as Homo sapiens) [compound 342],“+++” (>50 = +++)
16,390 (NPDLRRNVL; listed as Homo sapiens) [compound 390],“+++” (>50 = +++)
